The results in this text go back to paper doi:10.1101/2025.05.07.652675.

“And” between values parts separate entries of the source, which are not always exact repeats. Equal values may be shown once.

The experiment has as its target ZapC^F30D and ZapC^K94D. Put plainly: BLI. In general terms: In BLI a coated tip is dipped into the sample, and binding shifts an interference pattern.

Chain of FtsZ (wild type, untagged) (P0A9A6 whole entry): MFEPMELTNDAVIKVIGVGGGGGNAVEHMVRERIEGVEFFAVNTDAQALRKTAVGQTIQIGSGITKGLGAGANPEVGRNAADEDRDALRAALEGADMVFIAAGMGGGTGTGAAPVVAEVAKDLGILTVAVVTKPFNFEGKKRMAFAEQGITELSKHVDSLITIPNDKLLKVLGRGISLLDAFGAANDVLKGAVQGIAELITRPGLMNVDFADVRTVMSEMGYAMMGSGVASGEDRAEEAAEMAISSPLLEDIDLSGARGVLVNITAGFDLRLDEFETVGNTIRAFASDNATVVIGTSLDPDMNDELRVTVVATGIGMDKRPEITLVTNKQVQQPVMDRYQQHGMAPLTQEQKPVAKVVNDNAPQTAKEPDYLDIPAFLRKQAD

For the substance “FtsZ (wild type, untagged) (from UniProt P0A9A6 1-383) (natural protein)”, the binding affinity relative to wild-type ZapC (times lower) is 5 times and 7 times.
